T1: human IL3 (human, UniProt P08700 20-152)
T1 sequence: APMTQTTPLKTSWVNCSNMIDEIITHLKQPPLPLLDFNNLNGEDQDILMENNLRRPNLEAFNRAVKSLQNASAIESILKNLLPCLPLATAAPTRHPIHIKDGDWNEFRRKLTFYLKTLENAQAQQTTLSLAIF

B1: HC3 × LC3 (antibody, V domains shown)
VH: QVQLVQSGAEMKKPGASVKVACKGSGFTFTDYALHWVRQAPGQRLEWMGLISTYYGDTTYNQRFKGRVTITRDTSASTAYMELSSLRSEDTAIYYCVITTVAGTDAMDYWGQGTLVTVSS
VL: DIQMTQSPSSLSASVGDRVTITCHASQNINVWLSWYQQKPGKVPKLLIYKASNLHTGVPSRFSGSGSGTDFTLTISSLQPEDVATYYCQQGYSYPYTFGGGTKLEIK
B2: HC3 × LC2 (antibody, V domains shown)
VH: QVQLVQSGAEMKKPGASVKVACKGSGFTFTDYALHWVRQAPGQRLEWMGLISTYYGDTTYNQRFKGRVTITRDTSASTAYMELSSLRSEDTAIYYCVITTVAGTDAMDYWGQGTLVTVSS
VL: DIQMTQSPSSLSASVGDRVTITCHASQNINVWLSWYQQKPGKAPKLLIYKASNLHTGVPSRFSGSGSGTDFTFTISSLQPEDIATYYCQQGYSYPYTFGGGTKLEIK
B3: HC2 × LC3 (antibody, V domains shown)
VH: QVQLVQSGSELKKPGASVKVSCKASGFTFTDYALHWVRQAPGQGLEWMGLISTYYGDTTYNQRFKGRFVFSLDTSVSTAYLQISSLKAEDTAVYYCVITTVAGTDAMDYWGQGTLVTVSS
VL: DIQMTQSPSSLSASVGDRVTITCHASQNINVWLSWYQQKPGKVPKLLIYKASNLHTGVPSRFSGSGSGTDFTLTISSLQPEDVATYYCQQGYSYPYTFGGGTKLEIK
B4: HC1 × LC3 (antibody, V domains shown)
VH: QVQLVQSGAEVKKPGASVKVSCKASGFTFTDYALHWVRQAPGQRLEWMGLISTYYGDTTYNQRFKGRVTITRDTSASTAYMELSSLRSEDTAVYYCVITTVAGTDAMDYWGQGTLVTVSS
VL: DIQMTQSPSSLSASVGDRVTITCHASQNINVWLSWYQQKPGKVPKLLIYKASNLHTGVPSRFSGSGSGTDFTLTISSLQPEDVATYYCQQGYSYPYTFGGGTKLEIK
B5: HC1 × LC1 (antibody, V domains shown)
VH: QVQLVQSGAEVKKPGASVKVSCKASGFTFTDYALHWVRQAPGQRLEWMGLISTYYGDTTYNQRFKGRVTITRDTSASTAYMELSSLRSEDTAVYYCVITTVAGTDAMDYWGQGTLVTVSS
VL: DIQMTQSPSSVSASVGDRVTITCHASQNINVWLSWYQQKPGKAPKLLIYKASNLHTGVPSRFSGSGSGTDFTLTISSLQPEDFATYYCQQGYSYPYTFGGGTKLEIK
B6: HC2 × LC2 (antibody, V domains shown)
VH: QVQLVQSGSELKKPGASVKVSCKASGFTFTDYALHWVRQAPGQGLEWMGLISTYYGDTTYNQRFKGRFVFSLDTSVSTAYLQISSLKAEDTAVYYCVITTVAGTDAMDYWGQGTLVTVSS
VL: DIQMTQSPSSLSASVGDRVTITCHASQNINVWLSWYQQKPGKAPKLLIYKASNLHTGVPSRFSGSGSGTDFTFTISSLQPEDIATYYCQQGYSYPYTFGGGTKLEIK
B7: HC3 × LC1 (antibody, V domains shown)
VH: QVQLVQSGAEMKKPGASVKVACKGSGFTFTDYALHWVRQAPGQRLEWMGLISTYYGDTTYNQRFKGRVTITRDTSASTAYMELSSLRSEDTAIYYCVITTVAGTDAMDYWGQGTLVTVSS
VL: DIQMTQSPSSVSASVGDRVTITCHASQNINVWLSWYQQKPGKAPKLLIYKASNLHTGVPSRFSGSGSGTDFTLTISSLQPEDFATYYCQQGYSYPYTFGGGTKLEIK
B8: HC1 × LC2 (antibody, V domains shown)
VH: QVQLVQSGAEVKKPGASVKVSCKASGFTFTDYALHWVRQAPGQRLEWMGLISTYYGDTTYNQRFKGRVTITRDTSASTAYMELSSLRSEDTAVYYCVITTVAGTDAMDYWGQGTLVTVSS
VL: DIQMTQSPSSLSASVGDRVTITCHASQNINVWLSWYQQKPGKAPKLLIYKASNLHTGVPSRFSGSGSGTDFTFTISSLQPEDIATYYCQQGYSYPYTFGGGTKLEIK
B9: HC2 × LC1 (antibody, V domains shown)
VH: QVQLVQSGSELKKPGASVKVSCKASGFTFTDYALHWVRQAPGQGLEWMGLISTYYGDTTYNQRFKGRFVFSLDTSVSTAYLQISSLKAEDTAVYYCVITTVAGTDAMDYWGQGTLVTVSS
VL: DIQMTQSPSSVSASVGDRVTITCHASQNINVWLSWYQQKPGKAPKLLIYKASNLHTGVPSRFSGSGSGTDFTLTISSLQPEDFATYYCQQGYSYPYTFGGGTKLEIK
B10: HC14 × LC2 (antibody, V domains shown)
VH: QVQLVQSGAEVKKPGASVKVSCKGSGFTFTDYALHWVRQAPGQRLEWMGLISTYYGDTTYNQRFKGRVTMTADKSTSTAYMELSSLRSEDTAVYYCVITTVAGTDAMDYWGQGTLVTVSS
VL: DIQMTQSPSSLSASVGDRVTITCHASQNINVWLSWYQQKPGKAPKLLIYKASNLHTGVPSRFSGSGSGTDFTFTISSLQPEDIATYYCQQGYSYPYTFGGGTKLEIK
B11: HC12 × LC2 (antibody, V domains shown)
VH: QVQLVQSGAEVKKPGASVKVACKGSGFTFTDYALHWVRQAPGQRLEWMGLISTYYGDTTYNQRFKGRVTMTVDKSTSTAYMELSSLRSEDTAVYYCVITTVAGTDAMDYWGQGTLVTVSS
VL: DIQMTQSPSSLSASVGDRVTITCHASQNINVWLSWYQQKPGKAPKLLIYKASNLHTGVPSRFSGSGSGTDFTFTISSLQPEDIATYYCQQGYSYPYTFGGGTKLEIK
B12: HC11 × LC2 (antibody, V domains shown)
VH: QVQLVQSGAEVKKPGASVKVACKGSGFTFTDYALHWVRQAPGQRLEWMGLISTYYGDTTYNQRFKGRVTMTADKSTSTAYMELSSLRSEDTAVYYCVITTVAGTDAMDYWGQGTLVTVSS
VL: DIQMTQSPSSLSASVGDRVTITCHASQNINVWLSWYQQKPGKAPKLLIYKASNLHTGVPSRFSGSGSGTDFTFTISSLQPEDIATYYCQQGYSYPYTFGGGTKLEIK
B13: HC13 × LC2 (antibody, V domains shown)
VH: QVQLVQSGAEVKKPGASVKVACKGSGFTFTDYALHWVRQAPGQRLEWMGLISTYYGDTTYNQRFKGRVTMTADKSSSTAYMELSSLRSEDTAVYYCVITTVAGTDAMDYWGQGTLVTVSS
VL: DIQMTQSPSSLSASVGDRVTITCHASQNINVWLSWYQQKPGKAPKLLIYKASNLHTGVPSRFSGSGSGTDFTFTISSLQPEDIATYYCQQGYSYPYTFGGGTKLEIK
B14: HC15 × LC2 (antibody, V domains shown)
VH: QVQLVQSGAEVKKPGASVKVACKASGFTFTDYALHWVRQAPGQRLEWMGLISTYYGDTTYNQRFKGRVTMTADKSTSTAYMELSSLRSEDTAVYYCVITTVAGTDAMDYWGQGTLVTVSS
VL: DIQMTQSPSSLSASVGDRVTITCHASQNINVWLSWYQQKPGKAPKLLIYKASNLHTGVPSRFSGSGSGTDFTFTISSLQPEDIATYYCQQGYSYPYTFGGGTKLEIK
B15: HC9 × LC2 (antibody, V domains shown)
VH: QVQLVQSGAEMKKPGASVKVACKGSGFTFTDYALHWVRQAPGQRLEWMGLISTYYGDTTYNQRFKGRVTMTVDKSASTAYMELSSLRSEDTAIYYCVITTVAGTDAMDYWGQGTLVTVSS
VL: DIQMTQSPSSLSASVGDRVTITCHASQNINVWLSWYQQKPGKAPKLLIYKASNLHTGVPSRFSGSGSGTDFTFTISSLQPEDIATYYCQQGYSYPYTFGGGTKLEIK
B16: HC8 × LC2 (antibody, V domains shown)
VH: QVQLVQSGAEMKKPGASVKVSCKASGFTFTDYALHWVRQAPGQRLEWMGLISTYYGDTTYNQRFKGRVTMTVDKSSSTAYMELSSLRSEDTAIYYCVITTVAGTDAMDYWGQGTLVTVSS
VL: DIQMTQSPSSLSASVGDRVTITCHASQNINVWLSWYQQKPGKAPKLLIYKASNLHTGVPSRFSGSGSGTDFTFTISSLQPEDIATYYCQQGYSYPYTFGGGTKLEIK
B17: HC10 × LC2 (antibody, V domains shown)
VH: QVQLVQSGAEMKKPGASVKVACKGSGFTFTDYALHWVRQAPGQRLEWMGLISTYYGDTTYNQRFKGRVTITVDKSASTAYMELSSLRSEDTAIYYCVITTVAGTDAMDYWGQGTLVTVSS
VL: DIQMTQSPSSLSASVGDRVTITCHASQNINVWLSWYQQKPGKAPKLLIYKASNLHTGVPSRFSGSGSGTDFTFTISSLQPEDIATYYCQQGYSYPYTFGGGTKLEIK
B18: HC7 × LC2 (antibody, V domains shown)
VH: QVQLVQSGAEVKKPGASVKVACKGSGFTFTDYALHWVRQAPGQRLEWMGLISTYYGDTTYNQRFKGRVTMTVDKSSSTAYMELSSLRSEDTAVYYCVITTVAGTDAMDYWGQGTLVTVSS
VL: DIQMTQSPSSLSASVGDRVTITCHASQNINVWLSWYQQKPGKAPKLLIYKASNLHTGVPSRFSGSGSGTDFTFTISSLQPEDIATYYCQQGYSYPYTFGGGTKLEIK

The text below walks through data of US20250382362A1 (UNIVERSIT TSKLINIKUM REGENSBURG, published 2025).

In one experiment the target is T1, human IL3. Briefly: cell-based or functional assay.
As for B1, the “Inhibitory activity (block of IL-3 induced downregulation of CD131 on primary human basophils; chimeric P8C11 normalized to 100%)” value turned out to be 6%.

For B2, the “Inhibitory activity (block of IL-3 induced downregulation of CD131 on primary human basophils; chimeric P8C11 normalized to 100%)” value amounted to 6%.

Turning to B3, the “Inhibitory activity (block of IL-3 induced downregulation of CD131 on primary human basophils; chimeric P8C11 normalized to 100%)” value was 0.5%.

B4: the “Inhibitory activity (block of IL-3 induced downregulation of CD131 on primary human basophils; chimeric P8C11 normalized to 100%)” value turned out to be 2%.

In the case of B5, the “Inhibitory activity (block of IL-3 induced downregulation of CD131 on primary human basophils; chimeric P8C11 normalized to 100%)” value was determined as 2%.

Regarding B6, the “Inhibitory activity (block of IL-3 induced downregulation of CD131 on primary human basophils; chimeric P8C11 normalized to 100%)” value was determined as 0.5%.

Take B7: the “Inhibitory activity (block of IL-3 induced downregulation of CD131 on primary human basophils; chimeric P8C11 normalized to 100%)” value came out at 6%.

Turning to B8, the “Inhibitory activity (block of IL-3 induced downregulation of CD131 on primary human basophils; chimeric P8C11 normalized to 100%)” value amounted to 2%.

In the case of B9, the “Inhibitory activity (block of IL-3 induced downregulation of CD131 on primary human basophils; chimeric P8C11 normalized to 100%)” value is 0.5%.

The target of another experiment is T1, human IL3. Briefly: cell-based or functional assay. This is another data set of the same source.
B10: the “Inhibitory activity (block of IL-3 induced downregulation of CD131 on primary human basophils; chimeric P8C11 normalized to 100%)” value stood at 25%.

Regarding B11, the “Inhibitory activity (block of IL-3 induced downregulation of CD131 on primary human basophils; chimeric P8C11 normalized to 100%)” value is 100%.

Turning to B12, the “Inhibitory activity (block of IL-3 induced downregulation of CD131 on primary human basophils; chimeric P8C11 normalized to 100%)” value came to 25%.

Take B13: the “Inhibitory activity (block of IL-3 induced downregulation of CD131 on primary human basophils; chimeric P8C11 normalized to 100%)” value is 25%.

On to B14, for which the “Inhibitory activity (block of IL-3 induced downregulation of CD131 on primary human basophils; chimeric P8C11 normalized to 100%)” value came to 8%.

The next experiment addresses T1, human IL3. Briefly: cell-based or functional assay. This is another data set of the same source.
Consider B15, for which the “Inhibitory activity (block of IL-3 induced downregulation of CD131 on primary human basophils; chimeric P8C11 normalized to 100%)” value was found to be 50%.

As to B16, the “Inhibitory activity (block of IL-3 induced downregulation of CD131 on primary human basophils; chimeric P8C11 normalized to 100%)” value stood at 25%.

Turning to B17, the “Inhibitory activity (block of IL-3 induced downregulation of CD131 on primary human basophils; chimeric P8C11 normalized to 100%)” value stood at 40%.

With B18, the “Inhibitory activity (block of IL-3 induced downregulation of CD131 on primary human basophils; chimeric P8C11 normalized to 100%)” value worked out at 100%.
